Test results reported in article PMC6614801.

Tests used:
[1] = tested on: SuhB (Escherichia coli DH5α); experiment: double filter binding; conditions: Hill slope fit, 50 nM RNA, Filter binding: 20 mM HEPES-NaOH pH 7.5, 50 mM NaCl, 1 mM DTT, room temperature, 20 min, SEC buffer not in material
[2] = target: N-terminally His6-tagged NusA^AR2 (E. coli) (UniProt P0AFF6); experiment: SPR; Biacore, Sensor Chip NTA, 20°C; N-terminally His6-tagged NusA^AR2 immobilised; single cycle kinetics with SuhB variants at 25, 50, 100, 150 and 200 nM; 20 mM HEPES–NaOH pH 7.5, 50 mM NaCl, 1 mM DTT

Kd [2]	Substance	Kd [1]
	rrnGnut RNA	3.2 µM
141 µM	SuhB^KL251/254AA (from UniProt P0ADG4 1-267) (natural protein)	
